Results taken from patent publication US5942405A, “Therapeutic and screening methods using C3a receptor and C3a” (priority 1997, dated 1999).

B1: rC5a: Human rC5a was expressed in E. coli and purified to homogeneity (protein, UniProt P01031 678-751, looked up)
C5a anaphylatoxin: TLQKKIEEIAAKYKHSVVKKCCYDGACVNNDETCEQRAARISLGPRCIKAFTECCVVASQLRANISHKDMQLGR
modifications: C5a anaphylatoxin recombinant, E. coli
notes: Human rC5a was expressed in E. coli and purified to homogeneity

Experiments:
C3a Receptor [1] = target: T1, C3a Receptor (Homo sapiens, UniProt Q16581); assay: Whole cell 125I-C3a binding to C3a Receptor expressing RBL-2H3 cells (competition and saturation); set-up: cDNA encoding a complete orphan GPCR of 482 amino acids; expressed in transfected cells; details: for IC50: RBL-2H3 cells expressing C3a Receptor, 1×10^6 cells; for IC50 / competition of 125I-C3a binding / specific binding (in words): 2.3 nM labelled C3a; for competition of 125I-C3a binding / specific binding (in words): cells expressing C3a Receptor
T1 sequence (Q16581 1-482 F151C): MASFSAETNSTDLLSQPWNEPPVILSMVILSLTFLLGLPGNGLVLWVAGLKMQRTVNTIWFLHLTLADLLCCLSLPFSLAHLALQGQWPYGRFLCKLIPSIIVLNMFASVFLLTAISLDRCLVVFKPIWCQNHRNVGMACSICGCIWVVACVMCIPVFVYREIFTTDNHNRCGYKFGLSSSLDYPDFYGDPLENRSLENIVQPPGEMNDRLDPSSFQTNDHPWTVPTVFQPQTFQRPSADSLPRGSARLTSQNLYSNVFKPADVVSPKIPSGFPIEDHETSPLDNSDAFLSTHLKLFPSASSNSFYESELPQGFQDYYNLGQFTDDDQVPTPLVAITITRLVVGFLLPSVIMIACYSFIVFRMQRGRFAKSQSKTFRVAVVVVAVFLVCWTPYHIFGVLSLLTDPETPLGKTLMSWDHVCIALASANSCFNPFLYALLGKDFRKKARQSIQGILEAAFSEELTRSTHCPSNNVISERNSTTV
Description: (§1) To prepare C3a Receptor for expression in mammalian cells, a 1.6 kb cDNA fragment was obtained by PCR amplification that encompassed the entire C3a Receptor open reading frame. This fragment was subcloned into KpnI/Hind III sites of the mammalian expression vector, pCDN (Aiyar, N., et al (1994) Mol. Cell. Bio. 131, 75-86). Oligonucleotide primers used for PCR amplification were 5'-GA AGT GGT ACC ATG GCG TC-3' (SEQ ID NO:4) and 5'-GC TCCAAGCTTTCACACAGTTG-3' (SEQ ID NO:5) (the translation start and stop codons are underlined). RBL-2H3 cells were electroporated with either C3a Receptor or C5a-R in the pCDN mamalian expression vector (Aiyar, N., et al (1994) Mol. Cell. Bio. 131, 75-86), exactly as described (DeMartino, J. A., et al (1994) J. Biol Chem. 269, 14446-14450). Individual G418 resistant (400 μg/ml) colonies were isolated and expanded. Clonal cell lines expressing either C3a Receptor or C5a-R were chosen for further functional and binding studies.
The C3a carboxy-terminal analogue synthetic peptide, [WWGKKYRASKLGLAR (SEQ ID NO:3)] was obtained from Bachem Bioscience, Inc., King of Prussia, Pa. C3a was purchased from Advanced Research Technologies, San Diego, Calif. Human rC5a was expressed in E. coli and purified to homogeneity. Other agonists were obtained from Sigma, St. Louis, MO. C3a was radioiodinated using IODOBEADS (Pierce, Rockford Ill.) to a specific activity of 100 Cilmmol. Increasing concentrations of cold competitor were added to 1×10^6 cells in the presence of ^125 -C3a (2.3 nM), and the assay was performed essentially as described (Klos, A., et al (1992) Biochemistry 31, 11274-11282).
C3a was radioiodinated and used in whole cell binding assays to further characterize C3a Receptor. […] Curiously, HEK 293 cells stably expressing C3a Receptor mRNA by Northern Blot, neither bound nor responded to C3a (data not shown).

C3a Receptor [2] = target: T1, C3a Receptor; assay: Calcium mobilization by Fura 2 loaded RBL-2H3 cells stably expressing C3a Receptor; assay type: cell-based; set-up: cDNA encoding a complete orphan GPCR of 482 amino acids; expressed in transfected cells; details: for EC50: Fura 2 loaded RBL-2H3 cells expressing C3a Receptor, read-out: EC50, mobilization of intracellular Ca2+; for mobilization of intracellular Ca2+ (response in words): RBL-2H3 cells expressing C3a Receptor, Fig. 4: rC5a 100 nM, C3a analogue peptide 1 uM
Description: (§2) (A) Electrophysiological response of Xenopus oocytes injected with cRNA for C3a Receptor (10 ng), total U937 RNA (25 ng), or a mixture of C3a Receptor (10 ng) and U937 RNA (25 ng) to 10 nM rC5a, 10 nM C3a analogue peptide, 10 nM platelet activating factor (PAF), 10 nM fMetLeuPhe. Inset, represents typical response of oocytes co-injected with C3a Receptor cRNA+U937 RNA to 10 nM C3a. (B) Electrophysiological response of oocytes injected with C5a-R cRNA (10 ng), U937 RNA (25 ng) or a mixture of C5a-R and U937 RNA, to 10 nM rC5a or 10 nM C3a analogue peptide. […] Calcium mobilization by Fura 2 loaded cells expressing C5a receptor (FIGS. 4A & 4C) or C3a Receptor (FIGS. 4B & 4D) in response to rC5a (10 nM, FIG. 4A or 100 nM, FIG. 4B) or C3a analogue peptide (1 uM, FIGS. 4C & 4D).
as §1
(§3) RBL-2H3 cells (Siraganian, R. P., et al (1982) Fed. Proc. 41, 30-34), a rat basophil cell line, when transfected with an expression plasmid encoding the C5a-R express receptors that are functionally active (DeMartino, J. A., et al (1994) J. Biol. Chem. 269, 14446-14450). RBL-2H3 cells were stably transfected with mammalian expression plasmids encoding the C5a-R or C3a Receptor and Fura 2 loaded cells were tested for a C5a or C3a induced mobilization of intracellular Ca^2+.
(§4) Fura 2 loaded clonal cell lines expressing C5a-R or C3a Receptor were assayed for functional response, Ca^2+ mobilization, as described (Saussy, D. L. Jr., et al (1989) J. Biol. Chem. 264, 19845-19855).

C5a-R = assay: Calcium mobilization by Fura 2 loaded RBL-2H3 cells stably expressing C5a-R; assay type: cell-based, human; details: RBL-2H3 cells expressing C5a-R, Fig. 4: rC5a 10 nM, C3a analogue peptide 1 uM
Description: as §2, §1, §3, §4

Molecule | IC50 (C3a Receptor [1]) [nM] | competition of 125I-C3a binding / specific binding (in words) (C3a Receptor [1]) | Bmax (C3a Receptor [1]; saturation binding and Scatchard analysis, data not shown) | Kd (C3a Receptor [1]; saturation binding and Scatchard analysis, single class of sites, data not shown) [nM] | EC50 (C3a Receptor [2]) [nM] | mobilization of intracellular Ca2+ (response in words) (C3a Receptor [2]) | mobilization of intracellular Ca2+ (response in words) (C3a Receptor [2]; listed as native human C3a) | mobilization of intracellular Ca2+ (response in words) (C5a-R) | mobilization of intracellular Ca2+ (response in words) (C5a-R; listed as native human C3a) | mobilization of intracellular Ca2+ (response in words) (C3a Receptor [2]; listed as C3a synthetic peptide)
C3a: C3a was purchased from Advanced Research Technologies, San Diego; anaphylatoxin; radioiodinated for binding | 3 | specifically bind | 32,000 receptors per cell | 0.3 | 0.3 | bind and respond | responded | not C5a receptor bind and respond | not C5a-R expressing RBL-2H3 cells also responded | –
WWGKKYRASKLGLAR [C3a analogue synthetic peptide, reference compound] | 155 | specifically bind | – | – | 3.9 | respond | – | no response | – | robust response
B1 | – | not | – | – | – | not C3a Receptor expressing cells responded | – | responded | – | –
